Columns and labels:
[1] = target: PorXFj (Fjoh_2906), the Flavobacterium johnsoniae PorX homolog, purified, not phosphorylated (Flavobacterium johnsoniae) (UniProt A5FFU4); experiment: SEC; PorXFj 1.6 mg/mL incubated 1 h at RT with 100 uM CuCl2; Superdex 200 Increase 10/300 GL in PBS with 100 uM CuCl2
[2] = target: PorXFj (Fjoh_2906), the Flavobacterium johnsoniae PorX homolog, purified, not phosphorylated (Flavobacterium johnsoniae) (UniProt A5FFU4); experiment: SEC-MALS; PorXFj 1.6 mg/mL incubated 1 h at RT with 100 uM ZnCl2; column equilibrated in PBS only
[3] = target: PorXFj (Fjoh_2906), the Flavobacterium johnsoniae PorX homolog, purified, not phosphorylated (Flavobacterium johnsoniae) (UniProt A5FFU4); experiment: SEC; PorXFj 1.6 mg/mL incubated 1 h at RT with 100 uM ZnCl2; Superdex 200 Increase 10/300 GL in PBS with 100 uM ZnCl2
[4] = target: PorXFj (Fjoh_2906), the Flavobacterium johnsoniae PorX homolog, purified, not phosphorylated (Flavobacterium johnsoniae) (UniProt A5FFU4); experiment: SEC; PorXFj 1.6 mg/mL incubated 1 h at RT with 100 uM MnCl2; Superdex 200 Increase 10/300 GL in PBS with 100 uM MnCl2
[5] = target: phosphorylated PorXFj (PorXFj incubated with acetyl phosphate and MgCl2) (Flavobacterium johnsoniae) (UniProt A5FFU4); experiment: SEC-MALS; PorXFj 1.6 mg/mL incubated 1 h at RT with 20 mM AcP + 10 mM MgCl2; Superdex 200 Increase 10/300 GL in PBS

stoichiometry N [1]	stoichiometry N [2]	stoichiometry N [3]	stoichiometry N [4]	stoichiometry N [5]	Substance
2	2	2	2		PorXFj (Fjoh_2906), the Flavobacterium johnsoniae PorX homolog, purified, not phosphorylated (from UniProt A5FFU4 1-517) (natural protein)
				2	phosphorylated PorXFj (PorXFj incubated with acetyl phosphate and MgCl2) (from UniProt A5FFU4 1-517) (natural protein)
